T1: D-val-leu-lys-pNA
T1 chain: VLK

T2: human recombinant IFN-γ, P01579
T2 chain: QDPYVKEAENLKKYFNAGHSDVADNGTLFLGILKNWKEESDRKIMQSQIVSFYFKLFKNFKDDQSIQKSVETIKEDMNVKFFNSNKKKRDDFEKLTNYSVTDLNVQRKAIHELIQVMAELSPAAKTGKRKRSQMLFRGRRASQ

T3: mouse recombinant IFN-γ, P01580
T3 chain: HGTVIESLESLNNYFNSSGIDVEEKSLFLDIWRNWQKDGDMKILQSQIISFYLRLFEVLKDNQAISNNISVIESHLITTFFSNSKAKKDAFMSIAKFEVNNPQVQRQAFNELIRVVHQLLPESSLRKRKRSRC

T4: mouse recombinant TNF-α, P06804
T4 chain: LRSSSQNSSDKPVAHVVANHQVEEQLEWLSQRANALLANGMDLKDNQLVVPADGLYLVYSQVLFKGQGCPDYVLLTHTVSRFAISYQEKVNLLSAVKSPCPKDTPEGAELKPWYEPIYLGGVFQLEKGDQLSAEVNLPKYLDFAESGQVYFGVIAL

B1: Aspergillus oryzae 26 kDa protease (protein)
chain: HASADAWASSKAISSTSSPSSFKMRFISVSSLLLALAPALNAVPVEVAGSAQGLDVTLSQVGNTRIKAWKNTGSEDVTFVHLNFFKDAAPVQKVSLFRNATEVQFQGIKQRLITEGLSDDALTTLAPGATIEDEFDIASTSDLSEGGTITINSNGLVPITTDNKVTGYIPFTSNELSIDVDAAEAASVTQAVKILERRTKVTSCSGSRLSALQTALRNTVSLARAAATAAQSGSSSRFQEYFKTTSSSTRSTVAARLNAVANEAASTSSGSTTYYCSDVYGYCSSNVLAYTLPSYNIIANCDLYYSYLPALTSTCHAQDQATTTLHEFTHAPGVYSPGTDDLGYGYSAATALSASQALLNADTYALFANAVNLNC
B2: Aspergillus oryzae deuterolysin (neutral protease II) (protein)
chain: TEVTDCKGDAESSLTTALSNAAKLANQAAEAAESGDESKFEEYFKTTDQQTRTTVAERLRAVAKEAGSTSGGSTTYHCNDPYGYCEPNVLAYTLPSKNEIANCDIYYSELPPLAQKCHAQDQATTTLHEFTHAPGVYQPGTEDLGYGYDAATQLSAQDALNNADSYALYANAIELKC
B3: Aspergillus oryzae alkaline protease (protein)
chain: GLTTQKSAPWGLGSISHKGQQSTDYIYDTSAGEGTYAYVVDSGVNVDHEEFEGRASKAYNAAGGQHVDSIGHGTHVSGTIAGKTYGIAKKASILSVKVFQGESSSTSVILDGFNWAANDIVSKKRTSKAAINMSLGGGYSKAFNDAVENAFEQGVLSVVAAGNENSDAGQTSPASAPDAITVAAIQKSNNRASFSNFGKVVDVFAPGQDILSAWIGSSSATNTISGTSMATPHIVGLSLYLAALENLDGPAAVTKRIKELATKDWKDVKGSPNLLAYNGNA

Tests used:
D-val-leu-lys-pNA = target: T1, D-val-leu-lys-pNA
[1] = target: T2, human recombinant IFN-γ, P01579
[2] = target: human recombinant TNF-α, P01375
[3] = target: T3, mouse recombinant IFN-γ, P01580
[4] = target: T4, mouse recombinant TNF-α, P06804

Chain of human recombinant TNF-α, P01375 (P01375 77-233): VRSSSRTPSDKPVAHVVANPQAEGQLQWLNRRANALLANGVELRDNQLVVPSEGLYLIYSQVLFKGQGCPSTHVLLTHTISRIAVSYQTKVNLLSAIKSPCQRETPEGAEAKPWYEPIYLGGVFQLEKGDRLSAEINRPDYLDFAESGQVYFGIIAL

Row | Protein | Specific activity: hydrolysis of Val-leu-lys-pNA (absorbance at 405 nm) (mOD/min/µg protein) (D-val-leu-lys-pNA) | Proteolysis by Western blotting [1] | Proteolysis by Western blotting (50 ng cytokine, 2.5-10 ng protease, overnight at 37° C.) [2] | Specific activity: hydrolysis of salmon protamine (ninhydrin assay) (nmoles Leucine/30 min./µg protein) (salmon protamine sulfate) | Proteolysis by Western blotting [3] | Proteolysis by Western blotting [4]
1 | B1 | 2.1 | both deuterolysin and 26 kDa protease cleave human IFN-γ | Alkaline protease and, to a lesser extent, 26 kDa protease each produced a similar pattern of cleavage | 679 |  | 
2 | B2 | 2.3 | both deuterolysin and 26 kDa protease cleave human IFN-γ | deuterolysin was without significant effect | 677 |  | 
3 | B3 | 117 | the protease did not cleave human IFN-γ | Alkaline protease and, to a lesser extent, 26 kDa protease each produced a similar pattern of cleavage | 951 | alkaline protease (AP) purified from the protease powder prepared according to Example 1 evidenced the same substrate specificity | alkaline protease (AP) purified from the protease powder prepared according to Example 1 evidenced the same substrate specificity

Source: patent publication US20090068174
